In patent US20110081661A1, “Modified photoproteins with increased affinity for calcium and enhanced bioluminescence and uses thereof” (Millipore Corporation, priority 2009, published 2011):
Where a chain is given by its changes, count along the chain named. Names and notes keep the numbering of the source.

T1: GIP Receptor (Homo sapiens, UniProt P48546)
T1 construct: host or cells: HEK293T
T1 sequence (P48546 22-466): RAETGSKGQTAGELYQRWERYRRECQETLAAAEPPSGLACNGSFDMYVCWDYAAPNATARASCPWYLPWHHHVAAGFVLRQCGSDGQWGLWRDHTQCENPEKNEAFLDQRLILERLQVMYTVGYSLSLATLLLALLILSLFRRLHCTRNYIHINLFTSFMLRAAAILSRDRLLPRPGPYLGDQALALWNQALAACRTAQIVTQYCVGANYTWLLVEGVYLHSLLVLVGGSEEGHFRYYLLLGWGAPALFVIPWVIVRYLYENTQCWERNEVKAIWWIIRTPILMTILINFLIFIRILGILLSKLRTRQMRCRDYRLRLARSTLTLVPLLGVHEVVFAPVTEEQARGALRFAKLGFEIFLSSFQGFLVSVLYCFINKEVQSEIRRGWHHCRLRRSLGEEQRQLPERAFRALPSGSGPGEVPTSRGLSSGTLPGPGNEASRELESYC

B1: Mt-aequorin: Mitochondrial Wild-type Aequorin (mt-Aequorin), SEQ ID NO:6 (protein, listed as Aequorea victoria)
chain: MSVLTPLLLRGLTGSARRLPVPRAKIHSLPPEGKLTSDFDNPRWIGRHKHMFNFLDVNHNGKISLDEMVYKASDIVINNLGATPEQAKRHKDAVEAFFGGAGMKYGVETDWPAYIEGWKKLATDELEKYAKNEPTLIRIWGDALFDIVDKDQNGAITLDEWKAYTKAAGIIQSSEDCEETFRVCDIDESGQLDVDEMTRQHLGFWYTMDPACEKLYGGAVP
B2: Cyto-clytin K168D: K168D modified Clytin amino acid sequence, SEQ ID NO:9; cytosolic (protein)
chain: MADTASKYAVKLRPNFDNPKWVNRHKFMFNFLDINGDGKITLDEIVSKASDDICAKLGATPEQTKRHQDAVEAFFKKIGMDYGKEVEFPAFVDGWKELANYDLKLWSQNKKSLIRDWGEAVFDIFDKDGSGSISLDEWKAYGRISGICSSDEDAEKTFKHCDLDNSGDLDVDEMTRQHLGFWYTLDPNADGLYGNFVP
B3: Mt-clytin K168D: Mitochondrial K168D modified Clytin, SEQ ID NO:10 (protein)
chain: MSVLTPLLLRGLTGSARRLPVPRAKIHSLPPEGKLRPNFDNPKWVNRHKFMFNFLDINGDGKITLDEIVSKASDDICAKLGATPEQTKRHQDAVEAFFKKIGMDYGKEVEFPAFVDGWKELANYDLKLWSQNKKSLIRDWGEAVFDIFDKDGSGSISLDEWKAYGRISGICSSDEDAEKTFKHCDLDNSGDLDVDEMTRQHLGFWYTLDPNADGLYGNFVP
B4: Mt-clytin wt: Mitochondrial Wild-type Clytin (mt-Clytin), SEQ ID NO:5, with COX8 mitochondrial leader sequence (protein, listed as Clytia gregaria)
chain: B3 chain with D191K
B5: Mt-clytin K168E: Mitochondrial K168E modified Clytin, SEQ ID NO:12 (protein)
chain: B3 chain with D191E

Legend:
Assay type in all cases: cell-based
[1] = Calcium affinity of mitochondrial photoproteins, transient co-transfection with H1 histamine receptor in HEK293T cells (FIG. 2); conditions: HEK293T cells co-transfected with H1 histamine receptor; Triton X-100, free calcium 17 nM to 39.6 μM; total bioluminescence at 20 seconds; read-out: EC50 value (affinity for Ca^2+)
Text: (§1) Following the generation of modified forms of Clytin, the various variants were compared with wt-Aequorin for their affinity for intracellular calcium in transient transfection assays using co-transfection with the H1 histamine receptor (Genbank Accession No. NM_000861, obtained by PCR using H1-specific primers from a human brain cDNA library, forward primer 5′-[…] ATTCCTC-3′ (SEQ ID NO:60), reverse primer 5′-[…] AATTCTC-3′ (SEQ ID NO:61).
(§2) In an exemplary experiment, HEK293T cells (ATCC-CRL-11268) were transiently co-transfected with 2 μgs of each of pcDNA3.1-H1 (containing the cDNA encoding the H1 histamine receptor) and pcDNA3.1 containing the cDNAs encoding wild type mitochondrial Clytin (referred to as mt-Clytin), modified mitochondrial Clytin having a lysine to aspartic acid mutation at position 168 (referred to as mt-Clytin K168D), modified mitochondrial Clytin having a lysine to glutamic acid mutation at position 168 (referred to as mt-Clytin K168E), wild-type mitochondrial Obelin (referred to as mt-Obelin) or wild type mitochondrial Aequorin (referred to as mt-Aequorin) using the Targefect-293 reagent (TARGETING SYSTEMS). 48 hours later, the cells were detached using Accutase (MILLIPORE), centrifuged, and resuspended in […] in FreeStyle293 media (INVITROGEN), for incubation for 3-4 hours at room temperature in the dark. After incubation, the cells were centrifuged and resuspended in HBSS/HEPES buffer without Ca^2+ at a density of 1×10^6 cells/ml. Next, 100 μl/well of cell suspension for each transfection were added by the use of a Victor2 luminometer plate reader (WALLAC, […]), to a 96-well plate containing 50 μL/well Triton X-100 in MOPS/KCl buffer containing 10 mM EGTA and a series of Ca^2+ concentrations, such that free calcium concentrations ranged from 17 nM to 39.6 μM, followed by for measurement of total bioluminescence at 20 seconds.

H1 histamine receptor [2] = biological target: T2, H1 histamine receptor (Homo sapiens, UniProt P35367); test: GPCR-mediated versus total bioluminescence in U-2OS cells (FIG. 4); conditions: 10 μM histamine vs Triton X-100 with 1 mM calcium
T2 construct: expressed in transfected cells; host or cells: U-2OS
T2 sequence (P35367 whole entry): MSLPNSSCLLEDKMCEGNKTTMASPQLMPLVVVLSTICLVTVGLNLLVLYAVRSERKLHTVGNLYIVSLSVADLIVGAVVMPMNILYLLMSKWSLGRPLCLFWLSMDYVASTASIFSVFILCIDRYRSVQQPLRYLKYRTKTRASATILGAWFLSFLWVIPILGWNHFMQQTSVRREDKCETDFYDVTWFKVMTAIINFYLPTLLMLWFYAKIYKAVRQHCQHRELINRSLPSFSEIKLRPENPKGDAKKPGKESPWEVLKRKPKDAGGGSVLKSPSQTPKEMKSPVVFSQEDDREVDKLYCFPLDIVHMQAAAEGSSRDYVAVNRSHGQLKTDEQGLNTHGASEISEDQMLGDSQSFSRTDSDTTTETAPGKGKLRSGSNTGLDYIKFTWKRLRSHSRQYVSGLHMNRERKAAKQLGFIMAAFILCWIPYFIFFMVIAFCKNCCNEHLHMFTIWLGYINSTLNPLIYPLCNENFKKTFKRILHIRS
Procedure: In another experiment, the ability of the various photoproteins to detect calcium flux in live cells was assessed by adding varying concentrations of histamine to cells in order to activate the H1 histamine receptor followed by measurement of bioluminescence of the various photoproteins. U-2OS cells were transfected with a cDNA encoding H1 histamine receptor along with a cDNA encoding either a wild-type photoprotein or a modified photoprotein according to the invention, as described above in Example 2, except that Lipofectamine-2000 (INVITROGEN) was used as the transfection reagent. On the second day, the cells were trypsinized, counted, and plated in a white tissue-culture treated 96-well plate (COSTAR) at a density of about 50,000 cells/well in growth media consisting of DMEM containing 10% fetal bovine serum, non-essential amino acids, HEPES and penicillin/streptomycin. On the third day, the medium was removed and cells were washed once with 200 μl/well of HBSS/HEPES (containing Ca^2+). Cells were subsequently incubated with 5 μM coelenterazine in HBSS/HEPES (containing Ca^2+) in a volume of 200 μl/well, for 3-4 hours at room temperature in the dark. After incubation, the coelenterazine solution was removed and cells were washed and replaced with HBSS/HEPES buffer containing both Ca^2+ and Mg^2+. 50 μl/well of histamine at varying concentrations in HBSS/HEPES containing both Ca^2+ and Mg^2+ was added to the cells and total bioluminescence was measured at 20 seconds using a Victor2 luminometer.
In an exemplary experiment, U-2OS cells were transfected, plated and loaded with coelenterazine as described in Example 3. Luminescence induced by buffer alone or by 10 μM histamine was measured also as described in Example 3. Additionally, luminescence induced by addition of Triton X-100 in the presence of 1 mM calcium was also determined in order to assess the total amount of active photoprotein detectable using saturating calcium concentrations in cells.

[3] = Calcium EC50 of mitochondrially targeted photoproteins in HEK293T cells without cotransfected GPCR or G protein (Table II); conditions: no cotransfected GPCR or G protein
Text: as §2
(§3) Signal to background ratio was calculated as the signal induced by maximal GIP (1 μM) divided by the signal induced by buffer alone. The EC50 value for calcium was determined as described above for FIG. 2 for mitochondrially targeted photoproteins transfected into HEK293T cells in the absence of a cotransfected GPCR or G protein. Affinity for calcium was correlated with the properties of the amino acid side chain at residue 168 of Clytin.

GIP Receptor = biological target: T1, GIP Receptor; test: GIP receptor-mediated bioluminescence in HEK293T cells with chimeric promiscuous G protein (FIG. 5, Table II); conditions: for Max signal with GIP (RLU × 10^−5) / EC50 / signal intensities, GIP dose response (FIG. 5) / EC50 for GIP (nM): HEK293T cells; for Max signal with GIP (RLU × 10^−5) / EC50 / EC50 for GIP (nM): GIP Receptor + promiscuous G protein; for EC50 / EC50 for GIP (nM): luminescence vs GIP concentration; for % GPCR/total: signal induced by maximal GIP (1 μM) as percentage of signal induced by Triton X-100 with 1 mM Ca^2+; for Signal: background with GIP: signal induced by maximal GIP (1 μM) divided by signal induced by buffer alone; for signal intensities, GIP dose response (FIG. 5): GIP 10^−11 to 10^−6 M
Procedure: However, coexpression of GIP receptor with a chimeric G protein containing sequences from Gαs and Gαq enable the GIP receptor to stimulate calcium flux.
The results of the dose response curve to varying concentrations of GIP with a subset of the photoproteins are summarized in FIG. 5.
as §3
The EC50 value for receptor-mediated calcium flux induced by the ligand was determined by plotting luminescence (Y-axis) versus ligand concentration applied to the cells (X-axis), and applying a sigmoidal dose-response curve-fitting algorithm (GraphPad Prism). GPCR-mediated signals of the various modified forms of Clytin having an amino acid substitution at position 168 were also related to the nature of the side chain. In addition, the subcellular location of the photoproteins (cytosolic vs mitochondrial) appeared to have an effect on GPCR-mediated signals. […] All of the other mitochondrially targeted mutants except for Clytin K168R and wild-type Clytin yielded results that were in the range of those observed for wt-Aequorin.

H1 histamine receptor [4] = biological target: T2, H1 histamine receptor; test: H1 histamine receptor-mediated bioluminescence in U-2OS cells (FIG. 3); conditions: total bioluminescence at 20 seconds
Text: as §1
In another experiment, the ability of the various photoproteins to detect calcium flux in live cells was assessed by adding varying concentrations of histamine to cells in order to activate the H1 histamine receptor followed by measurement of bioluminescence of the various photoproteins. […] On the second day, the cells were trypsinized, counted, and plated in a white tissue-culture treated 96-well plate (COSTAR) at a density of about 50,000 cells/well in growth media consisting of DMEM containing 10% fetal bovine serum, non-essential amino acids, HEPES and penicillin/streptomycin. […] 50 μl/well of histamine at varying concentrations in HBSS/HEPES containing both Ca^2+ and Mg^2+ was added to the cells and total bioluminescence was measured at 20 seconds using a Victor2 luminometer.

TRPA1 cation channel = biological target: T3, TRPA1 cation channel (Homo sapiens, UniProt O75762); test: Ion channel-mediated bioluminescence in HEK293 cells stably expressing TRPA1, induced by AITC; conditions: HEK293 cells stably expressing TRPA1, AITC 10^−6 to 10^−3.5 M
T3 construct: host or cells: HEK293
T3 sequence (O75762 whole entry): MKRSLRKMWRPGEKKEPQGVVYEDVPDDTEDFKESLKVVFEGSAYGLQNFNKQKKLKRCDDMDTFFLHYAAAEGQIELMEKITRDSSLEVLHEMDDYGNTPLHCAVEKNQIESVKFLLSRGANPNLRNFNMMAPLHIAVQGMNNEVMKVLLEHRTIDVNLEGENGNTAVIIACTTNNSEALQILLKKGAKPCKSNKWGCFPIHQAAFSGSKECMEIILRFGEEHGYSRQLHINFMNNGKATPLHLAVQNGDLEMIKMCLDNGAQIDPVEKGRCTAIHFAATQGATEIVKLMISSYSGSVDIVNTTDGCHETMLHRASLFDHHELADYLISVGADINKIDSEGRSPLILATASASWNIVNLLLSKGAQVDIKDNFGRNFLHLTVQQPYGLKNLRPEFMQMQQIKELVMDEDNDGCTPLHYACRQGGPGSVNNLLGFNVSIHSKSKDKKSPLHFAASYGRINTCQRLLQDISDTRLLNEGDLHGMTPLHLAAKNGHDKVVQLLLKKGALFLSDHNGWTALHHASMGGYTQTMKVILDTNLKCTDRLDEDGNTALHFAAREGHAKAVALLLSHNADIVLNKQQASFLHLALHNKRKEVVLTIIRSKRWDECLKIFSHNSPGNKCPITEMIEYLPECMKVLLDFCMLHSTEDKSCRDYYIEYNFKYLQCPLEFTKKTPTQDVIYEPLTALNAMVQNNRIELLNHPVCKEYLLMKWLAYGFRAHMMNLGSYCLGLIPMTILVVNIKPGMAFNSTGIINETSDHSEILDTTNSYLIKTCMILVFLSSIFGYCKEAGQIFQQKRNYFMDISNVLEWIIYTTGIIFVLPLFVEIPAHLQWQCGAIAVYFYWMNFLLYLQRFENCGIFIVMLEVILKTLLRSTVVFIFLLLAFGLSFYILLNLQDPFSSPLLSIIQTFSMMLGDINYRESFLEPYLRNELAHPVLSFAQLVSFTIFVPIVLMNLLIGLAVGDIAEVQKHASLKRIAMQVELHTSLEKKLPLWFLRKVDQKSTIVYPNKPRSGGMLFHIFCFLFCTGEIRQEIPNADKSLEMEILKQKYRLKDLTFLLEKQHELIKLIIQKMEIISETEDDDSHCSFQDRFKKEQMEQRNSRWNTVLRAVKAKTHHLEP

[5] = listed as cytosolic Clytin K168D

| Molecule | EC50 [1] [nM] | GPCR-mediated signal as % of the total signal (H1 histamine receptor [2]) | EC50 [3] [nM] | Max signal with GIP (RLU × 10^−5) (GIP Receptor) | EC50 (GIP Receptor) [nM] | % GPCR/total (GIP Receptor) [%] | Signal: background with GIP (GIP Receptor) | luminescence induced by histamine (H1 histamine receptor [4]) | EC50 (AITC dose response) (TRPA1 cation channel) | signal (AITC-induced bioluminescence) (TRPA1 cation channel) | signal intensities, GIP dose response (FIG. 5) (GIP Receptor) | Max signal with GIP (RLU × 10^−5) (GIP Receptor; [5]) | EC50 for GIP (nM) (GIP Receptor) | % GPCR/total (GIP Receptor; [5]) | Signal: background with GIP (GIP Receptor; [5]) | Max signal with GIP (RLU × 10^−5) (GIP Receptor; listed as mt-Clytin K168D) | % GPCR/total (GIP Receptor; listed as mt-Clytin K168D) | Signal: background with GIP (GIP Receptor; listed as mt-Clytin K168D) |
| --- | --- | --- | --- | --- | --- | --- | --- | --- | --- | --- | --- | --- | --- | --- | --- | --- | --- | --- |
| B1 | 269 | about 70% | 235 | 4.68 | 11.3 | 23.9 | 84.7 |  |  |  |  |  |  |  |  |  |  |  |
| B2 |  | ~100% | 160 | 8.76 | 4.01 | 55.6 | 74.3 | much higher luminescence than the other forms of Clytin and Aequorin | lower EC50 than cytosolic wild-type Clytin | higher signal than cytosolic and mitochondrial Aequorin | significantly higher signal intensities than any of the wild-type photoproteins | highest maximal signal | lowest EC50 | highest % GPCR/total | highest signal to background ratio |  |  |  |
| B3 | 129 | ~100% | 160 | 7.90 | 9.1 | 34.4 | 188.2 |  |  |  | significantly higher signal intensities than any of the wild-type photoproteins |  | lowest EC50 |  |  | maximal signal | highest % GPCR/total | highest signal to background ratio |
| B4 | 1350 | about 30% | 545 | 3.14 | 12.9 | 6.8 | 146.5 |  |  |  |  |  |  |  |  |  |  |  |
| B5 | 173 |  | 176 | 6.07 | 21.6 | 19.8 | 120.8 |  |  |  |  |  |  |  |  |  |  |  |
